Test results published in publication PMC10477112, “APP-BACE1 Interaction and Intracellular Localization Regulate Aβ Production in iPSC-Derived Cortical Neurons” (Cellular and Molecular Neurobiology, 2023).

Target: T1, APP-derived C-terminal fragment (APP-CTF) (human (endogenous in iPSC-derived NPCs …, UniProt P05067 672-770))
T1 construct: also called C-terminal APP; C-termAPP; source: endogenous, human iPSC-derived NPCs and cortical neurons, fixed cells
Assay: proximity ligation; DuoLink PLA on fixed (4% PFA), permeabilised human iPSC-derived NPCs (day 45) and neurons (day 75); primary antibodies against APP (N-terminal or C-terminal), BACE1 and PSEN1; proximity of maximum 40 nm; PLA dot area divided by nuclear area
Settings: partners not purified

B1: BACE1 (beta-secretase) (enzyme, UniProt P56817 46-501, looked up)
chain: ETDEEPEEPGRRGSFVEMVDNLRGKSGQGYYVEMTVGSPPQTLNILVDTGSSNFAVGAAPHPFLHRYYQRQLSSTYRDLRKGVYVPYTQGKWEGELGTDLVSIPHGPNVTVRANIAAITESDKFFINGSNWEGILGLAYAEIARPDDSLEPFFDSLVKQTHVPNLFSLQLCGAGFPLNQSEVLASVGGSMIIGGIDHSLYTGSLWYTPIRREWYYEVIIVRVEINGQDLKMDCKEYNYDKSIVDSGTTNLRLPKKVFEAAVKSIKAASSTEKFPDGFWLGEQLVCWQAGTTPWNIFPVISLYLMGEVTNQSFRITILPQQYLRPVEDVATSQDDCYKFAISQSSTGTVMGAVIMEGFYVVFDRARKRIGFAVSACHVHDEFRTAAVEGPFVTLDMEDCGYNIPQTDESTLMTIAYVMAAICALFMLPLCLMVCQWRCLRCLRQQHDDFADDISLLK
notes: BACE1, human, endogenous; also called β-secretase; source: endogenous, human iPSC-derived NPCs and cortical neurons, fixed cells; endogenous, SH-SY5Y cells, fixed
B1 was tested, and the “fold PLA colocalization against flAPP/BACE1 in NPCs (calculated)” value was no less than 6.7 times.
